Results published in patent US20230056856, “COMPOSITIONS AND METHODS FOR TUNABLE REGULATION OF TRANSCRIPTION” (OBSIDIAN THERAPEUTICS, INC., published 2023).

B1: 8xZFHD1 binding sites of payload ZFHD-007 (dsDNA)
DNA 1: TAATGATGGGCGCACGAGTAATGATGGGCGGACGACTAATGATGGGCGCACGAGTAATGATGGGCGTCTAGCTAATGATGGGCGCTAGAGTAATGATGGGCGGTAGACTAATGATGGGCGCTCCAGTAATGATGGGCG
DNA 2: CGCCCATCATTACTGGAGCGCCCATCATTAGTCTACCGCCCATCATTACTCTAGCGCCCATCATTAGCTAGACGCCCATCATTACTCGTGCGCCCATCATTAGTCGTCCGCCCATCATTACTCGTGCGCCCATCATTA
B2: 8xZFHD1 BS payload ZFHD-022 (dsDNA)
DNA 1: B1 DNA 1
DNA 2: B1 DNA 2

How the values were obtained:
[1] = molecular target: ZFHD1-p65-CA2(L156H) (ZFHD-019) (Artificial); assay: cell_activity; ARPE-19, GFP MFI 10 uM ACZ vs DMSO, 48 h; in U2OS ACZ EC50 of payload 1.1 uM (Example 9)
Procedure: Cells were cultured in DMEM-F12 media supplemented with 10% FBS.
Ligand treatment: Each cell line was plated at a density of 15,000 cells/well in 6-8 wells of a 24-well plate. Cells were allowed to adhere overnight. […] After 48 hours incubation, cells were removed from the plate with 0.25% trypsin and collected. […] For flow cytometry, samples were washed once with cell staining buffer (Biolegend, San Diego, Calif.), resuspended in cell staining buffer with 1% QSol™ buffer (Intellicyt Corporation, Albuquerque, N. Mex.), and analyzed by flow cytometry.

[2] = molecular target: ZFHD1-ecDHFR(R12Y,Y100I)-p65 (ZFHD-008) (Artificial); assay: cell_activity; U2OS, GFP MFI 10 uM TMP vs DMSO, 72 h
Procedure: (§1) Ligand treatment: Each cell line was plated in 12-well plates at a density of 80,000 cells/well and allowed to adhere overnight. Media was removed and replacement media either with 10 μM Trimethoprim (TMP) or 0.1% DMSO was added. Cells were incubated for 24 hour, 48 hour, and 72 hour timepoints. At each timepoint, cells were removed from the plates with 0.25% trypsin for collection. A 0 hour timepoint was also collected before addition of TMP or DMSO.

[3] = molecular target: ZFHD1-p65-linker-ecDHFR(R12Y,Y100I) (ZFHD-009) (Artificial); assay: as above
Procedure: as §1

[4] = molecular target: ZFHD1-p65-ecDHFR(R12Y,Y100I) (ZFHD-005) (Artificial); assay: as above
Procedure: as §1

[5] = molecular target: ZFHD1-p65 (ZFHD-004, constitutive) (Artificial (Homo sapiens/Mus …)); assay: cell_activity; U2OS, constitutive TF; TMP/DMSO ratio only, not regulated by ligand
[6] = molecular target: ZFHD1-p65-CA2(L156H) (ZFHD-048) (Artificial); assay: cell_activity; Jurkat, GFP MFI 10 uM ACZ vs DMSO, 48 h

| Binder | activity [1] [fold] | activity [2] [fold] | activity [3] [fold] | activity [4] [fold] | activity [5] [fold] | activity [6] [fold] |
| --- | --- | --- | --- | --- | --- | --- |
| B1 | ~1.9 | 3.57 | 5.71 | 11.4 | 0.894 |  |
| B2 |  |  |  |  |  | ~2.1 |
